Target: the molecule itself
Assay: western blot of cell lysates

B1: serine racemase (enzyme, rat (endogenous in primary microglia), UniProt Q76EQ0 1-333, looked up)
chain: MCAQYCISFADVEKAHLNIQDSVHLTPVLTSSILNQIAGRNLFFKCELFQKTGSFKIRGALNAIRGLIPDTLEGKPKAVVTHSSGNHGQALTYAAKLEGIPAYIVVPQTAPNCKKLAIQAYGASIVYSEPSDESRENVAQRIIQETEGILVHPNQEPAVIAGQGTIALEVLNQVPLVDALVVPVGGGGMVAGIAITIKTLKPSVKVYAAEPSNADDCYQSKLKGELTPNLHPPETIADGVKSSIGLNTWPIIRDLVDDVFTVTEDEIKYATQLVWERMKLLIEPTAGVGLAAVLSQHFQTVSPEVKNICIVLSGGNVDLTSLSWVKQAERPAP
- stoichiometry N: 2

Reference: paper PMC483052 (Journal of Neuroinflammation, 2004)
